Measurements from patent US20250339531A1, “DUX4 POLYPEPTIDES AND NUCLEIC ACIDS FOR TREATING INFLAMMATORY AND AUTOIMMUNE CONDITIONS” (Fred Hutchinson Cancer Center, priority 2021, published 2025).

Experiments:
Assay in all cases: anti-FLAG co-IP LC-MS, exp 4, +Dox +IFNG
[1] = target: 40S ribosomal protein S3 (Homo sapiens) (UniProt P23396)
[2] = target: 40S ribosomal protein S6 (Homo sapiens) (UniProt P62753)
[3] = target: 60S acidic ribosomal protein P0 (Homo sapiens) (UniProt P05388)
[4] = target: 60S ribosomal protein L13 (Homo sapiens) (UniProt P26373)
[5] = target: ADP/ATP translocase 2 (Homo sapiens) (UniProt P05141)
[6] = target: AP-2 complex subunit mu (Homo sapiens) (UniProt E9PFW3)
[7] = target: Alpha-enolase (Homo sapiens) (UniProt P06733)
[8] = target: Clathrin heavy chain (Homo sapiens) (UniProt Q00610)
[9] = target: Coronin-1C (Homo sapiens) (UniProt Q9ULV4)
[10] = target: Dolichyl-diphosphooligosaccharide--protein glycosyltransferase subunit 1 (Homo sapiens) (UniProt P04843)
[11] = target: Elongation factor 1-alpha 1 (Homo sapiens) (UniProt P68104)
[12] = target: Endoplasmic reticulum chaperone BiP (Homo sapiens) (UniProt P11021)
Filamin-C (Homo sapiens) = Filamin-C (Homo sapiens) (UniProt Q14315)
[13] = target: Galectin-7 (Homo sapiens) (UniProt P47929)
[14] = target: Heat shock cognate 71 kDa protein (Homo sapiens) (UniProt P11142)
[15] = target: Heat shock protein HSP 90-alpha (Homo sapiens) (UniProt P07900)
[16] = target: Heterogeneous nuclear ribonucleoprotein H (Homo sapiens) (UniProt G8JLB6)
[17] = target: Heterogeneous nuclear ribonucleoprotein K (Homo sapiens) (UniProt P61978)
[18] = target: Histone-binding protein RBBP7 (Homo sapiens) (UniProt Q16576)
[19] = target: Importin subunit alpha-5 (Homo sapiens) (UniProt P52294)
[20] = target: Junctional sarcoplasmic reticulum protein 1 (Homo sapiens) (UniProt Q96MG2)
Nestin (Homo sapiens) = Nestin (Homo sapiens) (UniProt P48681)
[21] = target: Neuroblast differentiation-associated protein AHNAK (Homo sapiens) (UniProt Q09666)
[22] = target: Plasminogen activator inhibitor 1 (Homo sapiens) (UniProt P05121)
Plectin (Homo sapiens) = Plectin (Homo sapiens) (UniProt Q15149)
[23] = target: Probable ubiquitin carboxyl-terminal hydrolase FAF-X (Homo sapiens) (UniProt Q93008)
[24] = target: Procollagen-lysine,2-oxoglutarate 5-dioxygenase 2 (Homo sapiens) (UniProt O00469)
[25] = target: Protein S100-A6 (Homo sapiens) (UniProt P06703)
[26] = target: Ras GTPase-activating protein-binding protein 1 (Homo sapiens) (UniProt Q13283)
[27] = target: Serine/threonine-protein kinase 38 (Homo sapiens) (UniProt Q15208)
[28] = target: Serine/threonine-protein phosphatase 2A 65 kDa regulatory subunit A alpha isoform (Homo sapiens) (UniProt P30153)
Talin-1 (Homo sapiens) = Talin-1 (Homo sapiens) (UniProt Q9Y490)
[29] = target: Tubulin beta chain (Homo sapiens) (UniProt P07437)
[30] = target: Tubulin beta-4B chain (Homo sapiens) (UniProt P68371)
[31] = target: Tubulin beta-6 chain (Homo sapiens) (UniProt Q9BUF5)
[32] = target: Ubiquitin carboxyl-terminal hydrolase 11 (Homo sapiens) (UniProt P51784)
Vimentin (Homo sapiens) = Vimentin (Homo sapiens) (UniProt P08670)

Sequence of Alpha-enolase (Homo sapiens) (P06733 2-434 limits assumed): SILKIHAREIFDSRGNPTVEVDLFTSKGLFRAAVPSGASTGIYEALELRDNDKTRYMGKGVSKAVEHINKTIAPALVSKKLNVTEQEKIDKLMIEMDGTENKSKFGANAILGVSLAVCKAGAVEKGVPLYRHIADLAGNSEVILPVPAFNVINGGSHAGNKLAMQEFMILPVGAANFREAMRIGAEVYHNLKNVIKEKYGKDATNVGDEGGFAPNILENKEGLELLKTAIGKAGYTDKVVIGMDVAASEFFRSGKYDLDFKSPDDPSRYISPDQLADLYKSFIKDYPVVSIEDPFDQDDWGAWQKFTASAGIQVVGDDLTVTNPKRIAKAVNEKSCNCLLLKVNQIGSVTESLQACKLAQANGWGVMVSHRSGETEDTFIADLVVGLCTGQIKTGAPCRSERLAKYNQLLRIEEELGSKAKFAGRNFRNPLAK
Sequence of Endoplasmic reticulum chaperone BiP (Homo sapiens) (P11021 19-654 limits assumed): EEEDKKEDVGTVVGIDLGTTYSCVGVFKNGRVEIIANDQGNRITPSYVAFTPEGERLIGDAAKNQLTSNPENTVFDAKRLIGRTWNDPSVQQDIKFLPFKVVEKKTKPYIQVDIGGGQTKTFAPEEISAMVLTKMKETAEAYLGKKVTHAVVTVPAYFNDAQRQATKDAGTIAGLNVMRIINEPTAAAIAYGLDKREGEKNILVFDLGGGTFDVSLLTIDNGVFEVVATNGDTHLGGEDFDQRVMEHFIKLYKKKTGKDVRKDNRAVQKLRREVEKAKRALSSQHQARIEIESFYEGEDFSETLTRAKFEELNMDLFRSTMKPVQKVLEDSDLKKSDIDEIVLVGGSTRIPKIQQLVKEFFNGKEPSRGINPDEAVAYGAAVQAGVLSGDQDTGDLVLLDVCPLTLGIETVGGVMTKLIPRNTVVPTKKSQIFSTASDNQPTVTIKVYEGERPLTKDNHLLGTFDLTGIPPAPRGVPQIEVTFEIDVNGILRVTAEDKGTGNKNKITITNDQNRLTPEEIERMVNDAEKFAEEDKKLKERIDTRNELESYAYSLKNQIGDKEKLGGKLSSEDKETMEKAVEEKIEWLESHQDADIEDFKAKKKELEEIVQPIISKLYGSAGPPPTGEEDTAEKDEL
Sequence of Histone-binding protein RBBP7 (Homo sapiens) (Q16576 2-425 limits assumed): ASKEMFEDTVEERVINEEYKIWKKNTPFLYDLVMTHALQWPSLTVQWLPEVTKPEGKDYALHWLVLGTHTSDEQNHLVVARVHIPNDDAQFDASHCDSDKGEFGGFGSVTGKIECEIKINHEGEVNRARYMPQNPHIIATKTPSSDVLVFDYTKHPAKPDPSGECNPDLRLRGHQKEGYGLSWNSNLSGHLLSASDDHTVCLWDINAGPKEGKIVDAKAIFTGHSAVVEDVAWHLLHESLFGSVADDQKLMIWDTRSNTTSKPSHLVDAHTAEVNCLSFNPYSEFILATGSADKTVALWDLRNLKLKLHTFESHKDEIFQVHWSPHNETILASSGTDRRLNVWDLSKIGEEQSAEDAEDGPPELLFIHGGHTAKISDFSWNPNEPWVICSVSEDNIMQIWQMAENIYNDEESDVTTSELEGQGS
Sequence of Ubiquitin carboxyl-terminal hydrolase 11 (Homo sapiens) (P51784 whole entry): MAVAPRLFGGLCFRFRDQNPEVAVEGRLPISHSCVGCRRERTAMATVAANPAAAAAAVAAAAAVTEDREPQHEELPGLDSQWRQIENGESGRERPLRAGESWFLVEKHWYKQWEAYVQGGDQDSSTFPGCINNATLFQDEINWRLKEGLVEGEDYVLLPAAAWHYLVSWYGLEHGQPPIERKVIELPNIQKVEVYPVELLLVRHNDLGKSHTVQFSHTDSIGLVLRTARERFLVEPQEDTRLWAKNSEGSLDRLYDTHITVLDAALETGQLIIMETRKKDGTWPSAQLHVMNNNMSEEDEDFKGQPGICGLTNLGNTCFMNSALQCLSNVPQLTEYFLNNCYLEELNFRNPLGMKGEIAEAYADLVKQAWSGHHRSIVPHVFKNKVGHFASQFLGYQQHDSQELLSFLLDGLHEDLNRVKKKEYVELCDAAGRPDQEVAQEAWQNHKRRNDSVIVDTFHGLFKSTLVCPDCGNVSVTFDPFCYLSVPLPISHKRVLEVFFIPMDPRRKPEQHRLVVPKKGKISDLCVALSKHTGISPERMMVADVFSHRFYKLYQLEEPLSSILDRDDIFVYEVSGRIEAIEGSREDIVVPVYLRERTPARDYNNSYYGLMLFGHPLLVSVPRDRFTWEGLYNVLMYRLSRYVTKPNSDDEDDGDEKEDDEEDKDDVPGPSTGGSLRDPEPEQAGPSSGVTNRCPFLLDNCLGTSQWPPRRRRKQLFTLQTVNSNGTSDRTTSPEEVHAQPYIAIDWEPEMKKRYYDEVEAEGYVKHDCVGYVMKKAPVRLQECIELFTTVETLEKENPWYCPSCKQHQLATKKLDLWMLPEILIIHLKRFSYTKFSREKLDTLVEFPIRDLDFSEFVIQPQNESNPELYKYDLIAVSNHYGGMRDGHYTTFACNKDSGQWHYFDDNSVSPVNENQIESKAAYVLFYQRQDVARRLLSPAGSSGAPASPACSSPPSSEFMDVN
Sequence of Serine/threonine-protein phosphatase 2A 65 kDa regulatory subunit A alpha isoform (Homo sapiens) (P30153 2-589 limits assumed): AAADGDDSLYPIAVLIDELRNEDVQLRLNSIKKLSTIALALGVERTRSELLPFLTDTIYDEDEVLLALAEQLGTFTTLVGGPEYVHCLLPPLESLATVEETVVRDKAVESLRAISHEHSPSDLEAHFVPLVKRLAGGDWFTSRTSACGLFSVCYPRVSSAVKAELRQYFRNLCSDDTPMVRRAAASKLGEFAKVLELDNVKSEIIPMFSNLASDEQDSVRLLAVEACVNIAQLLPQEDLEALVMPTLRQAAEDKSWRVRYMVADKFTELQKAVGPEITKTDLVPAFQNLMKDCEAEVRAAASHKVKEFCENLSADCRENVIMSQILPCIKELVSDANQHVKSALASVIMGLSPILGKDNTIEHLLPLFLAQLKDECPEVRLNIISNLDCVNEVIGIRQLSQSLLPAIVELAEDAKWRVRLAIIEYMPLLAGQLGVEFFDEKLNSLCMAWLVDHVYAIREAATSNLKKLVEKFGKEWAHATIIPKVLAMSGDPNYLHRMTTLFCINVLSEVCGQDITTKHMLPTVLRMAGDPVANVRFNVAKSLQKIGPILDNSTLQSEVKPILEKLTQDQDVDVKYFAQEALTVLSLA
Sequence of Galectin-7 (Homo sapiens) (P47929 whole entry): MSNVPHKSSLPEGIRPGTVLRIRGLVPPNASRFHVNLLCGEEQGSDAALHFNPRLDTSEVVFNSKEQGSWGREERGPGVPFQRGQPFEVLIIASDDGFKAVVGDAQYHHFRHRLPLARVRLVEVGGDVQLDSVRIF
Sequence of Dolichyl-diphosphooligosaccharide--protein glycosyltransferase subunit 1 (Homo sapiens) (P04843 24-607 limits assumed): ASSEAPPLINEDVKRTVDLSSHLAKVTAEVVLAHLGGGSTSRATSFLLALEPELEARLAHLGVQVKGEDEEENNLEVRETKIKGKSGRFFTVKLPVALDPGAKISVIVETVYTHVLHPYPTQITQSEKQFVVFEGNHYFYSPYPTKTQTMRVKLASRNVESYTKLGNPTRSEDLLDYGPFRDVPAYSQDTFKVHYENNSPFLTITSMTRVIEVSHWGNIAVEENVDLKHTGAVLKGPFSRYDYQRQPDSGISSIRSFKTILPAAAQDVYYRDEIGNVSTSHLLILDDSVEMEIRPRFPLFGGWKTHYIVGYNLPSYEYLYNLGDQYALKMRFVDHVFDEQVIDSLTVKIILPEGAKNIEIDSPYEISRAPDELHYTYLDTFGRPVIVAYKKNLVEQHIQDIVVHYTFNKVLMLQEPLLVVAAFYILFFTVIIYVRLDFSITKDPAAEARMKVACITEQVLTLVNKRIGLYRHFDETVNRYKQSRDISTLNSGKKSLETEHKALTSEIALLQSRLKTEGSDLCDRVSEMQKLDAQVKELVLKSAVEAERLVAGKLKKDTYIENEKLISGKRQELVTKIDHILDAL
Sequence of Importin subunit alpha-5 (Homo sapiens) (P52294 2-538 limits assumed): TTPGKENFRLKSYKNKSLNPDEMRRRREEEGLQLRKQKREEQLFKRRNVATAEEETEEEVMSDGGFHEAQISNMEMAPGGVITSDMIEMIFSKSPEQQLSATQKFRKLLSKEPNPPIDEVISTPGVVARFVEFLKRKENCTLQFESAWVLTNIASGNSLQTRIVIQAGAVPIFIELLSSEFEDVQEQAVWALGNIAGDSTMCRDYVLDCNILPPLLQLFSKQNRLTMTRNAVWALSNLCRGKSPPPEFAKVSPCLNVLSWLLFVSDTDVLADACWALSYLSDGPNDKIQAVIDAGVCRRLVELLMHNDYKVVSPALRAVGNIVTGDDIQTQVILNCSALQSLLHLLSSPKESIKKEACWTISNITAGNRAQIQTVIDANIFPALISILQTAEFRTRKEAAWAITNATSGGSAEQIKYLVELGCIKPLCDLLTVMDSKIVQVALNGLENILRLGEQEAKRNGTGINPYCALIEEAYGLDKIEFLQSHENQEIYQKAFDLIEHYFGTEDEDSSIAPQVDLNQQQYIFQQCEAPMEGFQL
Sequence of Tubulin beta chain (Homo sapiens) (P07437 whole entry): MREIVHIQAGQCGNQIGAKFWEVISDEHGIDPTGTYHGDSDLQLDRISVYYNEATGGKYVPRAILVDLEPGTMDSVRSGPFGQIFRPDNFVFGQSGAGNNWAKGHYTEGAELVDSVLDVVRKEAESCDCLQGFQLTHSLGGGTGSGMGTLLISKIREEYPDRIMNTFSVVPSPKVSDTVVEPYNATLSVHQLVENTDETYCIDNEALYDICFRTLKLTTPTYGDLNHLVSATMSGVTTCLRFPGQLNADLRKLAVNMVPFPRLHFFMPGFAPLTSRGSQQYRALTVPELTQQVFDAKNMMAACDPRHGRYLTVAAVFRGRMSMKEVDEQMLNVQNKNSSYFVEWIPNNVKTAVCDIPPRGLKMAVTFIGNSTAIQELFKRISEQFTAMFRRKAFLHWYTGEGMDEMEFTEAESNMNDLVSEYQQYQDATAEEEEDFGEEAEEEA

For i3XFLAG-NLS-CTDaa154-424, the PSMs [1] was 11 PSMs, the PSMs [2] was 2 PSMs and the PSMs [3] was 36 PSMs. It also gave a PSMs [4] of 2 PSMs, a PSMs [5] of 6 PSMs and a PSMs [6] of 3 PSMs. The PSMs [7] was 2 PSMs, the PSMs [8] was 28 PSMs and the PSMs [9] was 7 PSMs. The PSMs [10] was 2 PSMs, the PSMs [11] was 9 PSMs and the PSMs [12] was 44 PSMs. It also gave a PSMs (Filamin-C (Homo sapiens)) of 12 PSMs, a PSMs [13] of 6 PSMs and a PSMs [14] of 105 PSMs. For the same substance, the PSMs [15] was 10 PSMs, the PSMs [16] was 3 PSMs and the PSMs [17] was 6 PSMs. The PSMs [18] was 5 PSMs, the PSMs [19] was 2 PSMs and the PSMs [20] was 3 PSMs. The PSMs (Nestin (Homo sapiens)) was 2 PSMs, the PSMs [21] was 1 PSMs and the PSMs [22] was 3 PSMs. For the same substance, the PSMs (Plectin (Homo sapiens)) was 7 PSMs, the PSMs [23] was 3 PSMs and the PSMs [24] was 7 PSMs. For the same substance, the PSMs [25] was 2 PSMs, the PSMs [26] was 2 PSMs and the PSMs [27] was 6 PSMs. For the same substance, the PSMs [28] was 2 PSMs, the PSMs (Talin-1 (Homo sapiens)) was 3 PSMs and the PSMs [29] was 110 PSMs. It also gave a PSMs [30] of 100 PSMs, a PSMs [31] of 46 PSMs and a PSMs [32] of 2 PSMs. It also gave a PSMs (Vimentin (Homo sapiens)) of 55 PSMs.
